In patent publication US6664090B1, “Carboxylesterase nucleic acid molecules, proteins and uses thereof” (Heska Corporation, priority 1996, dated 2003):

Legend:
[1] = juvenile hormone esterase (JHE) activity assay, hydrolysis of 3H-juvenile hormone to juvenile hormone acid; format: biochemical; conditions: purified recombinant protein from S. frugiperda:pVL-nfE91600 supernatant, size exclusion fractions
Description: Unlabeled juvenile hormone (JH; available from ICN Biomedicals, Inc., Aurora, Ohio) was diluted in hexane to concentration of about 0.025 M. Labeled 10-^3H-juvenile hormone (^3H-JH; available from Dupont-NEN) was diluted in hexane to concentration of about 80,000 cpm/μl. A JH substrate mixture was prepared by mixing about 20 μl of unlabeled JH with about 80 μl of ^3H-JH (about 5 μCi) in a 4 ml screw cap vial. The substrate mixture was then covered with nitrogen (i.e., “blanketed”) and the solvent contained in the mixture was evaporated by heating the mixture at 35° C. When just dry, about 1 ml of absolute anhydrous ethanol (final concentration 5×10^−4 M, or 6400 cpm/μl) was added to the vial. The substrate mixture was then stored at −20° C.
About 5 equivalents of each tissue (about 5 μl of protein) was added into the bottom of a small glass autosampler vial. About 95 μl of Tris-buffered saline (TBS) was added to each vial to bring the final volume in each vial to about 100 μl. Two control samples were also prepared by adding 100 μl TBS to two separate vials. […]
To measure labeled juvenile hormone acid, about 250 μl isooctane was added to each vial. […] The amount of ^3H-juvenile hormone acid contained in each vial was determined using a Beckman LS-1801 liquid scintillation counter (available from Beckman, Fullerton, Calif.).

[2] = general carboxylesterase (CE) activity assay, hydrolysis of α-napthyl acetate, Fast Blue, 590 nm; format: biochemical; conditions: purified recombinant protein from S. frugiperda:pVL-nfE91600 supernatant, size exclusion fractions
Description: Tissue samples and soluble extracts were prepared as described above in Example 1, except not labelled, from unfed (UF) and bovine blood-fed 1st instar flea larvae, bovine blood-fed 3rd instar flea larvae, bovine blood-fed prepupal flea larvae, unfed whole adult fleas, cat blood-fed adult (ACF) whole fleas, cat blood-fed adult fleas that have had their heads and midguts removed (referred to herein as fed adult partial fleas), unfed adult flea midguts and cat blood-fed adult flea midguts. About 5 tissue equivalents of each tissue were assayed for general CE activity using the following method. Tissue samples of about 5 μl were added to separate wells of flat-bottomed microtiter plate (available from Becton Dickinson, Lincoln Park, N.J.). A control well was prepared by adding about 5 μl of Tris buffer to an empty well of the plate. About 95 μl of 25 mM Tris-HCl (pH 8.0) was then added to each sample to increase the volume in each well to about 100 μl. About 100 μl of 0.25 mM α-napthyl acetate (available from Sigma, St. Louis, Mo.) dissolved in 25 mM Tris-HCl (pH 8.0) was then added to each well. […]
The microtiter plate was then analyzed using a Cambridge Technology, Inc. (Watertown, Pa.) model 7500 Microplate Reader set to 590 nm. The absorbance value for the control sample was subtracted from absorbance values of experimental samples, such that the background value was zero.

B1: PfE9528: full-length flea esterase protein of about 528 amino acids, SEQ ID NO:37, encoded by nfE92007 (protein, listed as Ctenocephalides felis)
chain: MADLQVTLLQGTLKGKEQISEKGNVFHSYSGIPYAKPPVGDLRFKPPQPAEPWSGVLDASKEGNSCRSVHFIKKIKVGAEDCLYLNVYVPKTSEKSLLPVMVWIHGGGFFMGSGNSDMYGPEYLMDYGIVLVTFNYRLGVLGFLNLGIEEAPGNVGLMDQVEALKWVKNNIASFGGDPNNVTIFGESAGGASVHYLMLSDLSKGLFHKAISQSGSAFNPWALQHDNNKENAFRLCKLLGHPVDNETEALKILRQAPIDDLIDNRIKPKDKGQLIIDYPFLPTIEKRYQNFEPFLDQSPLSKMQSGNFTKVPFICGYNSAEGILGLMDFKDDPNIFEKFEADFERFVPVDLNLTLRSKESKKLAEEMRKFYYQDEPVSSDNKEKFVSVISDTWFLRGIKNTARYIIEHSSEPLYLYVYSFDDFGFLKKLVLDPNIEGAAHGDELGYLFKMSFTEFPKDLPSAVVNRERLLQLWTNFAKTGNPTPEINDVITTKWDKATEEKSDHMDIDNTLRMIPDPDAKRLRFWNKFL
juvenile hormone esterase activity [1]: juvenile hormone esterase activity
carboxylesterase activity [2]: carboxylesterase activity
